{"source": "patent US8247168B2", "about": "“Regulation of gene expression by protein methylation” (University of Southern California, priority 1998, dated 2012)", "key": {"[1]": {"target": "T1, histone H3 (Bos taurus, UniProt P68432)", "T1 construct": "A 3.2-kb partial CARM1 cDNA clone with an open reading frame of 606 amino acids (CARM1(3-608)); purchased Boehringer Mannheim; host or cells: histone H3 from calf thymus; GST-CARM1 made in E. coli BL21", "assay": "Identification of methylated amino acids in histone H3 by thin layer chromatography of the hydrolyzate", "assay_type": "biochemical, calf", "settings": "histone H3 methylated by CARM1, thin layer chromatography", "description": "Histone H3 was incubated for 60 min at 30° C. in a 100 μl methylation reaction as described in FIG. 8, containing 0.024 mg/ml GST-CARM1 and 0.63 mg/ml H3. The reaction was stopped with 25 μl of 3% (v/v) trifluoroacetic acid (TFA), 15% (v/v) acetonitrile, and 100 μl was injected into a 3 cm×4.6 mm RP-300 reversed-phase guard column (Perkin Elmer-Brownlee) equilibrated with 80% solvent A (0.3% TFA in water) and 20% solvent B (0.3% TFA in acetonitrile). Methylated H3 was separated from unreacted S-adenosylmethionine using a gradient of 20-80% solvent B over 5 min at a flow rate of 1.0 ml/min. H3 eluted as a broad complex peak detected by monitoring absorbance at 214 nm. The H3 pool was reduced to dryness in a vacuum centrifuge and then subjected to acid hydrolysis in 6 N HCl at 112° C. for 20 h. […] Radioactivity in the fractions was determined by liquid scintillation counting, and peak identity was determined by comparison to derivatized standards including the three major forms of methylarginine and methyllysine. […] Radioactive spots corresponding to the positions of the three forms of methylarginine (which all separated from each other) were removed by scraping the chromatogram, and quantified by liquid scintillation counting. […]"}, "[2]": {"tested_on": "hnRNPA1", "assay": "Methylation of hnRNP A1, SDS-PAGE and fluorography (FIG. 8C)", "assay_type": "biochemical, human", "settings": "0.083 mg/ml hnRNP-A1", "description": "CARM1 and PRMT1 have different protein methyltransferase substrate specificities. CARM1 methylates histone H3, whereas PRMT1 methylates histone H4. […] (A,B) Calf thymus histones (Boehringer Mannheim) were incubated for 30 min at 30° C. in 32.5 μl reactions containing 20 mM Tris-Cl, 0.2 M NaCl, 4 mM EDTA, pH 8.0, 0.32 mg/ml individual histone (2a, 2b, 3, or 4) or 1.3 mg/ml mixed histone (M), 0.037 mg/ml GST-CARM1 or GST-PRMT1, and 7 μM S-adenosyl-L-[methyl-^3H]methionine (specific activity of 14.7 Ci/mmol). Reactions were stopped by addition of SDS-NuPAGE sample buffer (Novex), and 40% of each stopped reaction was then subjected to SDS-PAGE in 4-12% NuPAGE Bis-Tris gradient gels (Novex) using the Na-MES running buffer. Gels were stained with Coomassie Blue R-250 (A), and then subjected to fluorography (Chamberlin, M. (1978) Anal. Biochem. 98:132) for 12 h at −70° C. on sensitized Kodak XAR-5 film (B). Molecular weight markers (MW) are shown at left. Concentrations of GST fusion proteins were determined in comparison with bovine serum albumin standards (Sigma) by SDS polyacrylamide gel electrophoresis and Coomassie Blue staining; it was assumed that bovine serum albumin stained twice as intensely as most other proteins. Concentrations of histones and hnRNP A1 were determined by the method of Lowry (Lowry, O. H. et al. (1951) J. Biol. Chem. 193:265). […]"}}, "data": [{"molecule": "CARM1: novel murine protein arginine methyltransferase and transcriptional coactivator, 608 amino acids (protein, listed as Mus musculus) MAAAAATAVGPGAGSAGVAGPGGAGPCATVSVFPGARLLTIGDANGEIQRHAEQQALRLEVRAGPDAAGIALYSHEDVCVFKCSVSRETECSRVGRQSFIITLGCNSVLIQFATPHDFCSFYNILKTCRGHTLERSVFSERTEESSAVQYFQFYGYLSQQQNMMQDYVRTGTYQRAILQNHTDFKDKIVLDVGCGSGILSFFAAQAGARKIYAVEASTMAQHAEVLVKSNNLTDRIVVIPGKVEEVSLPEQVDIIISEPMGYMLFNERMLESYLHAKKYLKPSGNMFPTIGDVHLAPFTDEQLYMEQFTKANFRYQPSFHGVDLSALRGAAVDEYFRQPVVDTFDIRILMAKSVKYTVNFLEAKEGDLHRIEIPFKFHMLHSGLVHGLAFWFDVAFIGSIMTVWLSTAPTEPLTHWYQVRCLFQSPLFAKAGDTLSGTCLLIANKRQSYDISIVAQVDQTGSKSSNLLDLKNPFFRYTGTTPSPPPGSHYTSPSENMWNTGSTYNLSSGVAVAGMPTAYDLSSVIAGGSSVGHNNLIPLANTGIVNHTHSRMGSIMSTGIVQGSSGAQGGGGSSSAHYAVNNQFTMGGPAISMASPMSIPTNTMHYGS", "values": [{"measurement": "radiolabel migrating with N^G,N^G-dimethylarginine", "setting": "[1]", "result": "approximately 70%"}, {"measurement": "radiolabel migrating with N^G-monomethylarginine", "setting": "[1]", "result": 30, "unit": "%"}, {"measurement": "methylation of hnRNPA1", "setting": "[2]", "result": "not methylated"}]}]}
